Reference: patent publication US12708119B2, “Methods of reducing or preventing clostridioides difficile colonization” (priority 2020, dated 2026)
“Also recorded” adds a separate entry of the source.

Legend:
C. difficile SH11 spores = assay: Sporicidal enhancement of CDiff_F1 aptamer in combination with Clinell sporicidal solution: growth / MSC (Example 3); type: cell-based, Clostridioides difficile; parameters: key to Growth observed after recovering viable spores: Growth was recorded as “+”; no growth as “−”; conditions: for Growth observed after recovering viable spores: aptamers only, treatment 15 minutes
Method: (§1) Prior to testing, the CDiff_F1 aptamers were diluted in nuclease free water to a concentration of 80 μM. The aptamers were folded by heating to 95° C. in a digital dry bath for 5 minutes and then immediately placed on ice and cooled to 2° C. The aptamers were stored at 2-4° C. while in use. A C. difficile SH11 bacterial spore inoculum was prepared to 1×108±5×10^7 CFUmL−1 according to internal procedures. The inoculum was confirmed by serial dilution and plating out the resultant suspensions onto brain heart infusion agar supplemented with horse blood and yeast (BHI-YHT). The CDiff_F1 aptamers were further diluted in “BB+Mg2+” buffer to obtain two times in-test concentrations ([…]). Ten microlitres of C. difficile spores were added to 10 μL of each two times in-test concentration of CDiff_F1 aptamer. The spore suspension was pipette mixed and incubated with CDiff_F1 aptamer at room temperature for one hour. The spores were then washed three times by centrifuging at 13,400 RPM for 10 minutes. In each wash the supernatant was removed, and the pellet was resuspended in 100 μL of “BB+Mg2+” buffer. Following the third wash, the spores were resuspended in 100 μL of “BB+Mg2+” buffer and vortexed to obtain a homogenous solution.
(§2) A total of six, two times in-test concentrations of each sporicidal test agent were prepared from the stock (100%, 50%, 25%, 12.5%, 6.25%, 3.125%). Negative and positive control solutions were also prepared. Ten microliter aliquots of each sporicidal test agent concentration or control solution were added to the wells of a 96-well plate. A 10 μL aliquot of the aptamer-spore suspension was added to each test agent or control solution and pipette mixed. The final in-test concentrations of each sporicidal test agent were 50%, 25%, 12.5%, 6.25%, 3.125%, 1.5625%. The plates were then incubated for 15 minutes at 37° C.±2° C. in an anaerobic environment. Following incubation, 50 μL of GH neutraliser was added to each well and pipette mixed. A 10 μL aliquot of neutralised suspension was taken from each well and transferred to an agar plate and incubated for 48 hours at 37° C.±2° C. in an anaerobic environment. Growth was recorded as “+” and no growth as “−”. The minimum sporicidal concentration (MSC) for each concentration was identified as the lowest concentration with no growth for all replicates. […] The test was repeated without the presence of the aptamers and without the presence of the Clinell® sporicidal solution. Testing was also repeated using C. difficile ATCC® 43598™ and C. difficile R20291 spores. Testing was performed in triplicate.

[1] = test system: C. difficile ATCC® 43598™ spores; assay: as above; type: cell-based, Clostridioides difficile; parameters: key to Growth observed after recovering viable C. difficile ATCC 43598 spores: Growth was recorded as “+”; no growth as “−”; conditions: for Growth observed after recovering viable C. difficile ATCC 43598 spores: Aptamers only, treatment 15 minutes
Method: as §1, §2

[2] = test system: C. difficile R20291 spores; assay: as above; type: cell-based, Clostridioides difficile; parameters: key to Growth observed after recovering viable C. difficile R20291 spores: Growth was recorded as “+”; no growth as “−”; conditions: for Growth observed after recovering viable C. difficile R20291 spores: Aptamers only, treatment 15 minutes
Method: as §1, §2

[3] = test system: Clostridioides difficile ATCC® 43598™ spores; assay: Sporicidal enhancement of CotE_H2 and CDec_D1 aptamers in combination with Clinell sporicidal solution: growth / MSC (Examples 4 and 6); type: cell-based
Method: (§3) Prior to testing, CotE_H2 aptamers were diluted in nuclease free water to a concentration of 80 μM. The aptamers were folded by heating to 95° C. in a digital dry bath for 5 minutes and then immediately placed on ice and cooled to 2° C. The aptamers were stored at 2-4° C. while in use. A Clostridioides difficile SH11 bacterial spore inoculum was prepared to 1×10^7±5×10^6 CFUmL^−1 according to internal procedures. The inoculum was confirmed by serial dilution and plating out the resultant suspensions onto brain heart infusion agar supplemented with horse blood and yeast (BHI-YHT). CotE_H2 aptamers were further diluted in “TbKst” buffer to obtain 2× in-test concentrations (40, 20, 10 and 5 μM). Ten microlitres of C. difficile spores were added to 10 μL of each 2× in-test concentration of CotE_H2 aptamer. The spore suspension was pipette mixed and incubated with CotE_H2 aptamer at room temperature for one hour. The spores were then washed three times by centrifuging at 13,400 RPM for 10 minutes. In each wash the supernatant was removed, and the pellet was resuspended in 100 μL of “TbKst” buffer. Following the third wash, the spores were resuspended in 100 μL of “TbKst” buffer and vortexed to obtain a homogenous solution.
(§4) A total of six 2× in-test concentrations (1:2 dilutions) of the sporicidal test agent were prepared from the stock (100%, 50%, 25%, 12.5%, 6.25%, 3.125%). Negative and positive control solutions were also prepared. Ten microliter aliquots of each sporicidal test agent concentration or control solution were added to the wells of a 96-well plate. A 10 μL aliquot of the aptamer-spore suspension was added to each test agent or control solution and pipette mixed. The final in-test concentrations of the sporicidal test agent were 50%, 25%, 12.5%, 6.25%, 3.125%, 1.5625%. The plates were then incubated for 15 minutes at 37° C.±2° C. in an anaerobic environment. Following incubation, 50 μL of GH neutraliser was added to each well and pipette mixed. A 10 μL aliquot of neutralised suspension was taken from each well and transferred to an agar plate and incubated for 48 hours at 37° C.±2° C. in an anaerobic environment. Growth was recorded as “+” and no growth as “−”. The minimum sporicidal concentration (MSC) for each spore and aptamer concentration was identified as the lowest concentration with no growth for all replicates. […] The test was repeated without the presence of the aptamers and without the presence of the Clinell® sporicidal solution. Testing was also repeated using C. difficile ATCCR 43598™ and C. difficile R20291 spores. Testing was performed in triplicate. The method was repeated with CDec_D1 aptamers for all three strains of C. difficile spores.

[4] = test system: Clostridioides difficile R20291 spores; assay: as above; type: cell-based; conditions: for effect of the addition of aptamer on the sporicidal capabilities of Clinell sporicidal solution / growth of spores in the presence of aptamer alone: R20291 spores
Method: as §3, §4

[5] = test system: Clostridioides difficile SH11 spores; assay: as above; type: cell-based; conditions: for effect of the addition of aptamer on the sporicidal capabilities of Clinell sporicidal solution / growth of spores in the presence of aptamer alone: SH11 spores
Method: as §3, §4

[6] = C. difficile ATCC ® 43598 ™ spores, aptamer without Clinell sporicidal solution
[7] = C. difficile R20291 spores, aptamer without Clinell sporicidal solution
[8] = any concentration of CDec_D1 aptamers without Clinell sporicidal solution
[9] = C. difficile SH11 spores, aptamer without Clinell sporicidal solution
[10] = any concentration of CotE_H2 aptamers without Clinell sporicidal solution

B1: CDiff_F1: aptamer against C.diff spores, SEQ ID NO: 1; Table 4 lists fragments SEQ ID NO: 24, 44, 45 under the same ID (nucleic acid)
DNA: CCAGTGTAGACTACTCAATGCTCTTACGATCCTCACCTGCTAGCACACCCATATCCCATGCGTACTATCCACAGGTCAACC
modifications: listed as DNA, chemistry not given here
- effect of the addition of aptamer on the sporicidal capabilities of Clinell sporicidal solution (C. difficile SH11 spores; SH11 spores): enhanced
- growth of spores in the presence of aptamer alone (C. difficile SH11 spores; SH11 spores, any concentration of CDiff_F1 aptamers without Clinell sporicidal solution): unaffected; also recorded: did not affect
- MSC of CDiff_F1 (C. difficile SH11 spores; SH11 spores, aptamer without Clinell sporicidal solution): >20 µM
- Growth observed after recovering viable spores (C. difficile SH11 spores; CDiff_F1 2.5 μM, SH11 spores): +
- Growth observed after recovering viable spores (C. difficile SH11 spores; CDiff_F1 5 μM, SH11 spores): +
- Growth observed after recovering viable spores (C. difficile SH11 spores; CDiff_F1 10 μM, SH11 spores): +
- Growth observed after recovering viable spores (C. difficile SH11 spores; CDiff_F1 20 μM, SH11 spores): +
- fold reduction in the concentration of peracetic acid required for sporicidal activity (C. difficile SH11 spores; spores of the SH11 strain, 20 μM of the aptamer): up to 4 fold
- effect of the addition of aptamer on the sporicidal capabilities of Clinell sporicidal solution ([1]; ATCC 43598 spores): enhanced
- growth of spores in the presence of aptamer alone ([1]; ATCC 43598 spores, any concentration of CDiff_F1 aptamers without Clinell sporicidal solution): unaffected; also recorded: did not affect
- MSC of CDiff_F1 ([1]; ATCC 43598 spores, aptamer without Clinell sporicidal solution): >20 µM
- Growth observed after recovering viable C. difficile ATCC 43598 spores ([1]; CDiff_F1 aptamer 2.5 μM): +
- Growth observed after recovering viable C. difficile ATCC 43598 spores ([1]; CDiff_F1 aptamer 5 μM): +
- Growth observed after recovering viable C. difficile ATCC 43598 spores ([1]; CDiff_F1 aptamer 10 μM): +
- Growth observed after recovering viable C. difficile ATCC 43598 spores ([1]; CDiff_F1 aptamer 20 μM): +
- fold reduction in the concentration of peracetic acid required for sporicidal activity ([1]; spores of the ATCC 43598 strain, after 15 minutes): up to 2 fold
- Growth observed after recovering viable C. difficile R20291 spores ([2]; CDiff_F1 aptamer 2.5 μM): +
- Growth observed after recovering viable C. difficile R20291 spores ([2]; CDiff_F1 aptamer 5 μM): +
- Growth observed after recovering viable C. difficile R20291 spores ([2]; CDiff_F1 aptamer 10 μM): +
- Growth observed after recovering viable C. difficile R20291 spores ([2]; CDiff_F1 aptamer 20 μM): +
- effect of the addition of aptamer on the sporicidal capabilities of Clinell sporicidal solution ([2]; R20291 spores): enhanced
- MSC of CDiff_F1 ([2]; R20291 spores, aptamer without Clinell sporicidal solution): >20 µM
- growth of spores in the presence of aptamer alone ([2]; R20291 spores, only CDiff_F1 aptamers): did not affect

B2: CDec_D1: aptamer against CdeC, SEQ ID NO: 6; Table 4 lists fragments SEQ ID NO: 38, 39 under CdeC_D1 (nucleic acid)
DNA: CCAGTGTAGACTACTCAATGCCGTGGACTGGTCGGGTTTGGATTCGGCAGATGAATCAGTAGTACTATCCACAGGTCAACC
modifications: DNA, backbone and methylation of C not given here
- effect of the addition of aptamer on the sporicidal capabilities of Clinell sporicidal solution ([3]; ATCC 43598 spores): enhanced
- growth of spores in the presence of aptamer alone ([3]; ATCC 43598 spores, any concentration of CDec_D1 aptamers without Clinell sporicidal solution): unaffected
- MSC of CDec_D1 [3, 6]: >20 µM
- MSC of CDec_D1 [4, 7]: >20 µM
- effect of the addition of aptamer on the sporicidal capabilities of Clinell sporicidal solution [4]: enhanced
- growth of spores in the presence of aptamer alone [4, 8]: unaffected
- MSC of CDec_D1 [5, 9]: >20 µM
- effect of the addition of aptamer on the sporicidal capabilities of Clinell sporicidal solution [5]: enhanced
- growth of spores in the presence of aptamer alone [5, 8]: unaffected

B3: CotE_H2: aptamer against CotE, SEQ ID NO: 11; Table 4 lists fragments SEQ ID NO: 26-30 under the same ID (nucleic acid)
DNA: CCAGTGTAGACTACTCAATGCGGCTGTGTGACTTGACCTTTGGAATGGGTGGGAGGGATGGGTACTATCCACAGGTCAACC
modifications: listed as DNA, chemistry not given here
- growth of spores in the presence of aptamer alone ([3]; ATCC 43598 spores, any concentration of CotE_H2 aptamers without Clinell sporicidal solution): unaffected
- MSC of CotE_H2 [3, 6]: >20 µM
- MSC of CotE_H2 [4, 7]: >20 µM
- effect of the addition of aptamer on the sporicidal capabilities of Clinell sporicidal solution [4]: enhanced
- growth of spores in the presence of aptamer alone [4, 10]: unaffected
- MSC of CotE_H2 [5, 9]: >20 µM
- effect of the addition of aptamer on the sporicidal capabilities of Clinell sporicidal solution [5]: enhanced
- growth of spores in the presence of aptamer alone [5, 10]: unaffected
